Measured values from US20070224620A1 (PROMEGA, published 2007).

B1: HaloTag (HT) alone (enzyme, Rhodococcus rhodochrous, UniProt P0A3G2 1-293, looked up)
chain: MSEIGTGFPFDPHYVEVLGERMHYVDVGPRDGTPVLFLHGNPTSSYLWRNIIPHVAPSHRCIAPDLIGMGKSDKPDLDYFFDDHVRYLDAFIEALGLEEVVLVIHDWGSALGFHWAKRNPERVKGIACMEFIRPIPTWDEWPEFARETFQAFRTADVGRELIIDQNAFIEGALPMGVVRPLTEVEMDHYREPFLKPVDREPLWRFPNELPIAGEPANIVALVEAYMNWLHQSPVPKLLFWGTPGVLIPPAEAARLAESLPNCKTVDIGPGLFLLQEDNPDLIGSEIARWLPAL
notes: Control bait without a fused partner, covalently captured on HaloLink resin; also called mutant dehalogenase protein
B2: GST-Frb (other)
chain: ILWHEMWHEGLEEASRLYFGERNVKGMFEVLEPLHAMMERGPQTLKETSFNQAYGRDLMEAQEWCRKYMKSGNVKDLTQAWDLYYHVFRRISK
modifications: fluorescently labeled using Lys-tRNA with FluoroTect Green (labelled lysines, positions not stated)
notes: domain: Frb domain of Frap; N-terminal GST fusion expressed in rabbit reticulocyte lysate; linker not described; also called Prey; Frb domain of Frap; not shown: GST, N-terminal fusion partner encoded by Flexi vector pFN2A (Promega)

Experiments:
GST-cFos = target: T1, GST-cFos (UniProt P01100 1-380, fluorescently labeled using Lys-tRNA with FluoroTect Green (labelled lysines, positions not stated)); test: HaloLink resin pull-down, lane 3: HT alone as bait, no crosslinker; release of fluorescent prey read on gel
T1 construct: N-terminal GST fusion expressed in rabbit reticulocyte lysate; also called Prey; not shown: GST, N-terminal fusion partner encoded by Flexi vector pFN2A (Promega)
T1 sequence (P01100 whole entry, the tested form may be a part): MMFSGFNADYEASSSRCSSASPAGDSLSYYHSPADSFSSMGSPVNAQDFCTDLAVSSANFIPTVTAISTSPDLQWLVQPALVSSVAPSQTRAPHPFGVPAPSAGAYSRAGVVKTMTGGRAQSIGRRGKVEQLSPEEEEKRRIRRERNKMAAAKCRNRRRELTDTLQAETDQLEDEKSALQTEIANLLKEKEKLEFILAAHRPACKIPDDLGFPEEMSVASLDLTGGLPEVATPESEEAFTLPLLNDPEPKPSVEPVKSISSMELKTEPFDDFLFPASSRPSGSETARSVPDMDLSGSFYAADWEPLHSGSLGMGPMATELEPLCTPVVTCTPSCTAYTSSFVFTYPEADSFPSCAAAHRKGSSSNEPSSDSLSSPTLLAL

HaloTag (HT) alone = target: B1; test: HaloLink resin pull-down, lane 1: HT alone as bait, 2 uM rapamycin, no DTTSP; release of fluorescent prey read on gel; text: showed no background binding of Prey
Description: Remove final wash solution and add protein-protein crosslinked material to resin. Incubate at 22° C. for one hour. Wash resin 5×1 mL with 1×TBS+0.05% IGEPAL as described above. Remove final wash. At this point, the crosslinked protein-protein complex has been covalently captured and purified on the resin and can be resuspended in the desired buffer. In samples treated with the crosslinker DTTSP, resupend resin in 1×SDS Loading buffer containing 5 mM β-Me and boil at 95° C. for 5 minutes to reverse the protein-protein crosslinks. Analyse samples using SDS gel electrophoresis.

Row | binding result (GST-cFos) | binding result (HaloTag (HT) alone) | Binder
1 | no binding |  | B1
2 |  | no binding | B2
